Tests used:
both IL-1α and IL-1β = experiment: MRC-5 assay in the presence of both IL-1α and IL-1β (IL-8 synthesis); assay type: cell-based, human; details: equal amounts of hIL-1α and hIL-1β in the same culture; read-out: dual-inhibition activity (IL-8 synthesis by MRC-5 cells)
Procedure: The biological activity of DVD-Ig was measured using MRC-5 bioassay. The MRC-5 cell line is a human lung fibroblast cell line that produces IL-8 in response to human IL-1α and IL-1β in a dose-dependent manner. MRC-5 cells were obtained from ATCC and cultured in 10% FBS complete MEM at 37° C. in a 5% CO2 incubator. To determine neutralizing activity of the DVD-Ig against human IL-1α or IL-1β, 50 μl of antibody (1×10^−7 to 1×10^−12 M) in MEM/10% FBS was added to a 96 well plate and pre-incubated with 50 μl of hIL-1α or hIL-1β (200 pg/ml) for 1 hour at 37° C., 5% CO2. MRC-5 cells at a concentration of 1×10^5/ml were then added (100 μl) to all wells, and the plates were incubated overnight at 37° C. in a 5% CO2 incubator. The supernatants were harvested and human IL-8 production measured by standard ELISA (R&D Systems, Minneapolis, Minn.). Neutralizing activity of the DVD-Ig binding protein was determined by its ability to inhibit IL-8 production.
To determine if DVD-Ig binding protein was able to inhibit IL-8 production in the presence of both IL-1α and IL-1β, equal amounts of hIL-1α and hIL-1β were added in the same culture system of MRC-5 assay. […]

DMM mice = experiment: DMM model of osteoarthritis, mechanical allodynia (paw withdrawal threshold); assay type: in vivo, mouse; details: Example 5 (FIG. 12); 6 mg/kg ip twice per week for four weeks; day 28
Procedure: The DMM model also generates measurable pain in the mice. […] The efficacy of anti-IL-1α/β therapy was studied in the DMM animal model.
The potential of anti-IL-1 therapy to ameliorate pain was tested in the DMM mouse model of OA in terms of mechanical allodynia. Dosing of the combination of IL-1α and IL-1β mAbs was initiated on the day of the surgery and was repeated twice a week for 5 weeks. Animals were treated with PBS vehicle alone, with an IgG isotype control, or with a combination of anti-IL-1α and anti-IL-1β mAbs (at a dose of 6 mg/kg for each mAb). Animals were tested weekly for paw withdrawal threshold. […] This reduction in pain was seen as early as week 1 following treatment (data not shown).
To evaluate the effect of IL-1 therapy in established pain, animals in the IgG control group with established OA and mechanical allodynia were treated on day 35 with the combination of anti-IL-1α and anti-IL-1β monoclonal antibodies and the paw withdrawal threshold was tested 24 hours later (day 36).
The potential of anti-IL-1 therapy to ameliorate pain in the DMM mouse model of OA (see, above) in terms of mechanical allodynia was further evaluated. Dosing of the combination of IL-1α and IL-1β mAbs was initiated on the day of the surgery and was repeated twice a week for 4 weeks. […]

B1: DVD1-Ig: DVD-Ig binding hIL-1α and hIL-1β; VH/VL of 13F5.G5 fused directly to N-terminus of 3D12.E3 VH/VL, no linker (antibody)
VH: MQLSGLTSEDSAMYFCVRFPTGNDYYAMDYWGQGTSVTVSSQIQLVQSGPELKKPGETVKISCKASGYTFRNYGMNWVKQAPGKDLKRMAWINTYTGESTYADDFKGRFAFSLETSASTAYLQINNLKNEDTATYFCARGIYYYGSSYAMDYWGQGTSVTVSS
VL: PVEADDAATYYCQQNNEDPFTFGSGTKLEIKRNIQMTQTTSSLSASLGDRVTISCRASQDISNCLNWYQQKPDGTVKLLIYYTSRLHSGVPSRFSGSGSGTDYSLTISNLEQEDIATYFCQQGKTLPYAFGGGTKLEINRR
- IC50 (both IL-1α and IL-1β): 2.2 nM

B2: 10G11: mouse anti-mouse IL-1β monoclonal antibody (clone 10G11) from IL-1α/β double KO mice (antibody, V domains shown)
VH: EVQLQQSGPELVKPGTSVKMSCKTSGYTFTSYVMHWVKQKPGQGLEWIGYIIPYNDNTKYNEKFKGKATLTSDKSSSTAYMELSSLTSEDSAVYYCARRNEYYGSSFFDYWGQGTTLTVSS
VL: DIQMTQSPASLSASVGETVTITCRGSGILHNYLVWYQQKQGKSPQLLVYSAKILADGVPSRFSGSGSGTQYSLKINSLQPEDFGSYYCQHFWSTPFTFGSGTKLEIKR
modifications: heavy chain variable domain of 10G11; light chain variable domain of 10G11
notes: mouse anti-mouse IL-1β monoclonal antibody (clone 10G11) from IL-1α/β double KO mice
- paw withdrawal threshold (allodynia) (DMM mice): allodynic (painful)

B3: DVD2-Ig: DVD-Ig as DVD1-Ig but with linkers ADAAP (light chain) and AKTTPP (heavy chain) (antibody)
VH: MQLSGLTSEDSAMYFCVRFPTGNDYYAMDYWGQGTSVTVSSAKTTPPQIQLVQSGPELKKPGETVKISCKASGYTFRNYGMNWVKQAPGKDLKRMAWINTYTGESTYADDFKGRFAFSLETSASTAYLQINNLKNEDTATYFCARGIYYYGSSYAMDYWGQGTSVTVSS
VL: PVEADDAATYYCQQNNEDPFTFGSGTKLEIKRADAAPNIQMTQTTSSLSASLGDRVTISCRASQDISNCLNWYQQKPDGTVKLLIYYTSRLHSGVPSRFSGSGSGTDYSLTISNLEQEDIATYFCQQGKTLPYAFGGGTKLEINR
- IC50 (both IL-1α and IL-1β): 1.2 nM
